Results on 2 molecules are retold here after article PMC4516795 (The Journal of Experimental Medicine, 2015).

The target in this test is purified monomeric (gel filtered) recombinant basigin (Homo sapiens, UniProt P35613-2, strain). The experiment in a line: SPR.

B1: parent anti-basigin mAb (antibody, V domains shown)
VH: EVQLQQSGPELVKTGASVKISCKASGYSFSDDYMHWVKQSHGKSLEWIGYISCYNGVPSYNQKFKGKATFTVDTSSSTAYMQFSSLTSEDSAVYYCARGGNHGFYYHAMDYWGQGTSVTVSS
VL: DIVLTQSPAILSVSPGERVSFSCRASQSIGTGIHWYQQRTNGSPRLLIKFASESISGIPSRFSGSGSGTDFTLSINSVESEDIADYFCQQSTSWPYTFGGGTKLEIK
For B1, the Kd is approximately 4 nM.

B2: recombinant chimeric anti-basigin antibody Ab-1 (antibody, V domains shown)
VH: EVQLQQSGPELVKTGASVKISCKASGYSFSDDYMHWVKQSHGKSLEWIGYISCYNGVPSYNQKFKGKATFTVDTSSSTAYMQFSSLTSEDSAVYYCARGGNHGFYYHAMDYWGQGTSVTVSS
VL: DIVLTQSPAILSVSPGERVSFSCRASQSIGTGIHWYQQRTNGSPRLLIKFASESISGIPSRFSGSGSGTDFTLSINSVESEDIADYFCQQSTSWPYTFGGGTKLEIK
As to B2, the Kd is approximately 4 nM.
